# According to the supplement of paper PMC10065799, “High-throughput profiling of sequence recognition by tyrosine kinases and SH2 domains using bacterial peptide display” (eLife, 2023):
# How the values were obtained:
# [1] = system: AncSZ; test: phosphorylation enrichment, bacterial display (enrichment ratio); higher = better substrate or ligand; peptides without Tyr show the background
# [2] = target: EPHB1 (UniProt P54762); test: as above
# [3] = target: EPHB2 (UniProt P29323); test: as above
# [4] = target: FGFR1 (UniProt P11362); test: as above
# [5] = target: FGFR3 (UniProt P22607); test: as above
# [6] = system: Fer (mouse); test: as above
# [7] = target: Fes (UniProt P07332); test: as above
# [8] = target: Fyn (UniProt P06241); test: as above
# [9] = target: Hck (UniProt P08631); test: as above
# [10] = target: Jak2 (UniProt O60674); test: as above
# [11] = target: MERTK (UniProt Q12866); test: as above
# [12] = system: c-Abl (mouse); test: as above
# [13] = system: c-Src; test: as above
# [14] = target: Grb2 SH2 (UniProt P62993); test: SH2 binding enrichment of the phosphorylated peptide, bacterial display (enrichment ratio); higher = better substrate or ligand; peptides without Tyr show the background
# [15] = target: SHP2-C SH2; test: as above
# [16] = target: c-Src SH2; test: as above
# 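Wherever SH2 binding enrichment of the phosphorylated peptide, bacterial display is given: peptide library displayed on the E. coli surface as eCPX fusions, selected cells deep-sequenced, score is each peptide's frequency after selection divided by its frequency in the input.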
# 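Wherever phosphorylation enrichment, bacterial display is given: 11-residue human phosphosite peptides and single-mutation variants displayed on the E. coli surface, counted by deep sequencing, each peptide's frequency after selection divided by its frequency in the unselected input library; frequency after pTyr selection over input frequency; kinase dosed for 20-30% of maximal phosphorylation in three min.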
# Sequence of Hck (P08631 whole entry, looked up): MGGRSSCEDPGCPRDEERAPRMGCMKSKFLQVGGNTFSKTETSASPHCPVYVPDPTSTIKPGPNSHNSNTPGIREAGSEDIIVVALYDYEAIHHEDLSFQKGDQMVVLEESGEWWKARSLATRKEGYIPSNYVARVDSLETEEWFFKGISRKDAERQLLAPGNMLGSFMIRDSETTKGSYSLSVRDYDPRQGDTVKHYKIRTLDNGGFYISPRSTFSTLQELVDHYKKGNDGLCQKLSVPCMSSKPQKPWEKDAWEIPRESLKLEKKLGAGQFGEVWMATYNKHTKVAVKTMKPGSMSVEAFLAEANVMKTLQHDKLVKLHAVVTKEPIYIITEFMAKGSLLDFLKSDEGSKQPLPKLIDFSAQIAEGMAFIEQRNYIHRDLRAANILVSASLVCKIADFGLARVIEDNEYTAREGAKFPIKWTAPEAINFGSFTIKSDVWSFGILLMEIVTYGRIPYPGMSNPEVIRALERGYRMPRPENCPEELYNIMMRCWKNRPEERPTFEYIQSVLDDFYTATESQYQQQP
# Sequence of Fes (P07332 whole entry, looked up): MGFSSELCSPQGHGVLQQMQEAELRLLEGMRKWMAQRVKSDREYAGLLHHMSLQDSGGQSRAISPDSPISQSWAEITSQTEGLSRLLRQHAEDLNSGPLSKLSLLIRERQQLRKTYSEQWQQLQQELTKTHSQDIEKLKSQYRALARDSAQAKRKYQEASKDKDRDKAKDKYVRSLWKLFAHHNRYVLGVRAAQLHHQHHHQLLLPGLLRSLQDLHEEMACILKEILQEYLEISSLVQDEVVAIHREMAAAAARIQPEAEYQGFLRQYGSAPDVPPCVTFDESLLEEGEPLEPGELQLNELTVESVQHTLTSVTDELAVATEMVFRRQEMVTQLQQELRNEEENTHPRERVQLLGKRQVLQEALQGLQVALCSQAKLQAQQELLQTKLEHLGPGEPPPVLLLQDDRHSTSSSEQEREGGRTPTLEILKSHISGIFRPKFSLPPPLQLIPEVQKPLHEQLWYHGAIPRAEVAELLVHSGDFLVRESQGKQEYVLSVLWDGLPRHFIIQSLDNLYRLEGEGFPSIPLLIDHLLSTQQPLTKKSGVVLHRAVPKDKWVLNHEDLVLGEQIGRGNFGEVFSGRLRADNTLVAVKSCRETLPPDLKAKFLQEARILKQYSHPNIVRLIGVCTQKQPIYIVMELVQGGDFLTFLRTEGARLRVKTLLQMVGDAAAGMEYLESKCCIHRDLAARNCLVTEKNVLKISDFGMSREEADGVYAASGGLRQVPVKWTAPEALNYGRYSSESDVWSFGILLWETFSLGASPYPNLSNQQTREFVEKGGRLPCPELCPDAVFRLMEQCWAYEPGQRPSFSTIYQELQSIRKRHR
# Sequence of FGFR1 (P11362 whole entry, looked up): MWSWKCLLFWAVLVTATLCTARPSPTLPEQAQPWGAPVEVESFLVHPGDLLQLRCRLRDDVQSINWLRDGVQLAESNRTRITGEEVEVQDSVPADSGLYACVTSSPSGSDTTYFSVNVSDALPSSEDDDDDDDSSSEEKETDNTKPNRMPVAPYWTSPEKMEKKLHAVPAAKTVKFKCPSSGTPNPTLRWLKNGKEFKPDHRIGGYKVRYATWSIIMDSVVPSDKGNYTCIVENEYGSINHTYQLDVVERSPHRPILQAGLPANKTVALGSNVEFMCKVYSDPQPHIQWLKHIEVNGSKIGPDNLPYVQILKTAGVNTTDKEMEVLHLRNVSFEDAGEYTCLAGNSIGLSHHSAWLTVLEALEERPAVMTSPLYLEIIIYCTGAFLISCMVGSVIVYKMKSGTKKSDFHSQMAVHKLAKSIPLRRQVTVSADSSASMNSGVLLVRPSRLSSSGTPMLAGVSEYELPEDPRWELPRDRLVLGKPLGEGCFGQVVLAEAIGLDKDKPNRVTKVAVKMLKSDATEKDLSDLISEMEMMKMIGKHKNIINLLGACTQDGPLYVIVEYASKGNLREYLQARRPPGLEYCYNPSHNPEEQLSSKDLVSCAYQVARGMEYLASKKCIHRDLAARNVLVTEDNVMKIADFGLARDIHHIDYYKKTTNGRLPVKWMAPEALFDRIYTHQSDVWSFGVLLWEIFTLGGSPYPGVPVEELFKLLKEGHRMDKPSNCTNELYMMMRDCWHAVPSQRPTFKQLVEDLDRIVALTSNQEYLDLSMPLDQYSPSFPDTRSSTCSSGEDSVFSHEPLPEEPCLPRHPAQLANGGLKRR
# Sequence of FGFR3 (P22607 whole entry, looked up): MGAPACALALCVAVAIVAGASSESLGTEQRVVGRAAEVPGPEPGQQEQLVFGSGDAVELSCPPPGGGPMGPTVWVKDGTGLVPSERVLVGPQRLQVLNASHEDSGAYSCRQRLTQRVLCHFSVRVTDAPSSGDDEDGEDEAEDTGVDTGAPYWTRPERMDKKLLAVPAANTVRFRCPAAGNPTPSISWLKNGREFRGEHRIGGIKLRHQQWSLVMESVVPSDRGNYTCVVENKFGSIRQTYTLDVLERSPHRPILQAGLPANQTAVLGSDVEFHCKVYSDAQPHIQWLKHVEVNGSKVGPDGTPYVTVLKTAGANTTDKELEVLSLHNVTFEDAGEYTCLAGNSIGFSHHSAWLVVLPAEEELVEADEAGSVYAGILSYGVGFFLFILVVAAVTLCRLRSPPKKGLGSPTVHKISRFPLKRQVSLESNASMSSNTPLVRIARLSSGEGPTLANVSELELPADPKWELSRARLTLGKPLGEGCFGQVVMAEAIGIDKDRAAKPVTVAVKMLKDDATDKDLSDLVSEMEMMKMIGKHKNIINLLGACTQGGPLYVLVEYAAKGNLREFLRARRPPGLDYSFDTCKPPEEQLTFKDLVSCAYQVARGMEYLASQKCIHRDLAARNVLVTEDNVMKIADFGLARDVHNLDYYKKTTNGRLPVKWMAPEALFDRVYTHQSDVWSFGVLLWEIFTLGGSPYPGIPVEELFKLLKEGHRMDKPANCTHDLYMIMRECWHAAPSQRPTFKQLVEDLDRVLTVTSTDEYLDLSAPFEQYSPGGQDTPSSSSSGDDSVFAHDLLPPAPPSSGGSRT
# Sequence of Jak2 (O60674 whole entry, looked up): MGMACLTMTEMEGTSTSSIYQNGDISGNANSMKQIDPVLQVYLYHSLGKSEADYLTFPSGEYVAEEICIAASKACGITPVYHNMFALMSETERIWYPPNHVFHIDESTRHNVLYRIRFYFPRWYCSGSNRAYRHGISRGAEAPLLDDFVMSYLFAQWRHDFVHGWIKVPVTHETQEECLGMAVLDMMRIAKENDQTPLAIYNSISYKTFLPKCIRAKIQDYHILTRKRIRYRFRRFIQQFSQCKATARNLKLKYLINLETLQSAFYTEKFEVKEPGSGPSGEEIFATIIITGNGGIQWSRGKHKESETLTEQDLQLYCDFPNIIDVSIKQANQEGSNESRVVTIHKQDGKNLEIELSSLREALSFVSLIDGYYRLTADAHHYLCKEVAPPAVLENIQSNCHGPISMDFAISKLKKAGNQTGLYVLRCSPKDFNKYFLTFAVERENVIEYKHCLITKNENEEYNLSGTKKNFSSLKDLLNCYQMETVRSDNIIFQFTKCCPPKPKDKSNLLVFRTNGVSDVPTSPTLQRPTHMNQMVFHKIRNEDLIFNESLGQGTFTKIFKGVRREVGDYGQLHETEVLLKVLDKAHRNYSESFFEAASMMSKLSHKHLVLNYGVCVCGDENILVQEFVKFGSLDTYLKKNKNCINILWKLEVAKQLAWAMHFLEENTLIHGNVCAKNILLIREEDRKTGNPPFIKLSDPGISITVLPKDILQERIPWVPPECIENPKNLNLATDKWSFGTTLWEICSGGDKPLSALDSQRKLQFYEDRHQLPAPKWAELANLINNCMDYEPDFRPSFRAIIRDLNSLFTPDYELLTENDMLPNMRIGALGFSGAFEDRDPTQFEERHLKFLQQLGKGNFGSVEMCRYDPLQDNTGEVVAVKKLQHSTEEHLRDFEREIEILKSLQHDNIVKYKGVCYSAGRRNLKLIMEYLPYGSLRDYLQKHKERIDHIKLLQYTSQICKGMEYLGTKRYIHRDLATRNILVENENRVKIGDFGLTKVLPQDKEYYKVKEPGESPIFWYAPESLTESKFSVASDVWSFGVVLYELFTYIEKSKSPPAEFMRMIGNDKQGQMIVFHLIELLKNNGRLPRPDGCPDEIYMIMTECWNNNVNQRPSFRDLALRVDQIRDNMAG
# Sequence of Fyn (P06241 whole entry, looked up): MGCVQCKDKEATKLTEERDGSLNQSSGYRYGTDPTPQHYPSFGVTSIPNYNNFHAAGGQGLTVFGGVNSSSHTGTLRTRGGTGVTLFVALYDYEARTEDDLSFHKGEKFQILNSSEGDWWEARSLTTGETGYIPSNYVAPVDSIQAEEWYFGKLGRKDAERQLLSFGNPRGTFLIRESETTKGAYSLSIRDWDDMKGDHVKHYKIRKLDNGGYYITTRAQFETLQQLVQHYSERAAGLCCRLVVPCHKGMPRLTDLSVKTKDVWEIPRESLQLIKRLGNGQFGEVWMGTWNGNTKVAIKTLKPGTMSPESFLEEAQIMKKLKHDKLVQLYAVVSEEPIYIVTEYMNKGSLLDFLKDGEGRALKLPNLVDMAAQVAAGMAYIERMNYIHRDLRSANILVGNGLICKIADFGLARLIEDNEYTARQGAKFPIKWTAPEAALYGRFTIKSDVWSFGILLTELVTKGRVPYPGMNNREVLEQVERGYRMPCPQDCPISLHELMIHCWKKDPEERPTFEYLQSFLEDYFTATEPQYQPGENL
SH2 binding enrichment [14],SH2 binding enrichment [15],SH2 binding enrichment [16],Sequence,phosphorylation enrichment [1],phosphorylation enrichment [2],phosphorylation enrichment [3],phosphorylation enrichment [4],phosphorylation enrichment [5],phosphorylation enrichment [6],phosphorylation enrichment [7],phosphorylation enrichment [8],phosphorylation enrichment [9],phosphorylation enrichment [10],phosphorylation enrichment [11],phosphorylation enrichment [12],phosphorylation enrichment [13]
0.705,0.63,0.424,NIEPIYLNMLL [ATR_Y317_V316I],1.85,13.8,14.5,10.7,7.79,13.3,3.2,8.37,6.92,1.42,6.85,15.1,6.6
0.75,0.548,0.443,CDDGKYVYVVT [RPS6KA3_Y488_Y483C],1.48,0.896,0.777,0.834,1.15,0.798,1.6,0.84,0.75,1.42,0.525,1.05,0.863
1.1,0.643,0.622,RPASVYTKRCS [CPT2_Y508],0.781,0.377,0.603,0.586,0.533,0.459,0.826,0.623,0.418,0.444,0.442,0.687,0.476
0.872,1.07,2.06,VSKGGYFSVNL [C3orf33_Y164],0.875,0.556,0.672,0.428,0.599,0.423,0.972,0.485,0.483,1.08,0.418,0.682,0.44
0.843,0.769,0.701,ISSLCYELLEE [TRPC6_Y896_R895C],2.07,0.986,0.654,0.748,1.23,0.924,1.66,0.597,0.747,1.36,0.777,1.13,0.928
1.24,0.889,1.44,LQPNNYQFCGG [CSF1R_Y969],1.49,4.08,2.2,1.04,1.09,0.627,1.18,1.14,0.86,1.24,1.6,2.74,0.632
0.853,0.638,2.84,EILTQYEAMAS [GFAP_Y242_R239L],1.02,0.547,0.452,0.485,0.608,0.514,0.976,0.529,0.526,0.846,0.471,0.713,0.503
0.832,0.754,6.86,ISSLRYELLEE [TRPC6_Y896],1.24,0.63,0.573,0.52,0.764,0.544,1.17,0.511,0.597,0.832,0.533,0.621,0.397
0.795,0.291,2.46,RELGEYPLAEY [ALDH1A3_Y492_A493P],0.982,0.484,0.495,0.688,0.685,0.593,1.41,0.582,0.505,1.97,0.516,1.17,0.492
0.767,1.21,0.487,PESIMYWKFTT [NTRK3_Y744_R745W],2.52,0.92,1.22,1.09,1.55,1.53,2.81,1.85,1.96,2.76,0.851,2.36,3.1
0.887,0.782,0.501,EVLKNYSQQKD [GOLGA4_Y1551_N1552S],0.545,0.419,0.456,0.404,0.56,0.417,0.609,0.438,0.476,0.657,0.458,0.494,0.433
0.767,0.61,0.425,FPHVIYARLWR [SMAD4_Y95],0.917,3.11,1.16,0.567,0.648,0.539,0.85,5.08,5.38,0.751,1.5,10.1,5.17
0.852,0.498,0.528,SQSKGYRPKLF [SIPA1L3_Y1376_G1371S_YF],0.503,0.415,0.32,0.433,0.42,0.368,0.549,0.417,0.41,0.5,0.458,0.478,0.435
0.804,3.37,2.54,MGSYNYLGFAR [SPTLC2_Y178],0.831,2.42,0.949,1.3,1.04,0.707,1.05,0.758,2.99,2.89,6.56,0.956,1.1
0.756,1,0.757,HNLDYYKMTTN [FGFR3_Y648_K650M],1.91,2.13,1.2,17.7,14,0.64,1.04,0.454,0.607,11.2,0.68,0.591,0.894

Sequence,SH2 binding enrichment [14],SH2 binding enrichment [15],SH2 binding enrichment [16],phosphorylation enrichment [1],phosphorylation enrichment [2],phosphorylation enrichment [3],phosphorylation enrichment [4],phosphorylation enrichment [5],phosphorylation enrichment [6],phosphorylation enrichment [7],phosphorylation enrichment [8],phosphorylation enrichment [9],phosphorylation enrichment [10],phosphorylation enrichment [11],phosphorylation enrichment [12],phosphorylation enrichment [13]
EDKFMYFEFPQ [PTEN_Y240],0.745,0.681,0.543,1.7,0.826,0.67,9.1,7.33,0.421,1.27,1.32,1.11,2.05,1.68,0.952,2.53
